Test results reported in the RNAGym collection of RNA variant scans (doi:10.7554/elife.90254).

B1: LINE1-full (parent)
chain: UACGUAGGUGGUUUUCCCCUGAUAGUGCUAAGGGGGCCUGGAAGUUUGGACUGGGCAGAGCUCAACACAGCGUGGCAAAGUGGCUGUGGCUAGACUGCCUCUCUGGAUUCCUCGUCACUCAGCAGGGCAUCUCUGAGAGAAAUGCC

Variants of: B1
Test: self-cleavage, relative activity (ratio to wild type); higher = more cleavage; in vitro, sequencing; the parent is a self-cleaving ribozyme

In order of falling self-cleavage:
1. U100C A107C  2.87
2. U100C U143G  2.85
3. U100C G126C  2.64
4. U100A U130C  2.57
5. U102A U115G  2.51
6. U100G U119C  2.45
7. U100C U132A  2.37
8. U100C C131G  2.35
9. U100C C131U  2.27
10. U102C C120A  2.26
11. U100C A124U  2.22
12. U100G U130C  2.21
13. U100C A142C  2.2
14. U100C A121U  2.11
15. U100C U119A  2.09
16. U100C C123U  2.06
17. C101U A124G  2.06
18. U102C A121U  2.05
19. U100C U134C  2.01
20. C101U U132A  2.01
21. U100C C118A  2
22. U100C A129G  1.99
23. U100A U108C  1.96
24. U100C G144C  1.95
25. U100C U102A  1.95
26. U100C A141G  1.9
27. U100C G127A  1.9
28. U102A A142G  1.9
29. U102A U115C  1.88
30. U100C U130A  1.85
31. U100C G127U  1.84
32. U100C A138G  1.83
33. U100C U134A  1.83
34. C101A U134G  1.8
35. U102C G137A  1.8
36. U102C C110U  1.78
37. U100C C110A  1.77
38. U100C U109A  1.77
39. U100C U112A  1.74
40. C101U A107G  1.73
41. U102A A129G  1.72
42. U102C C116U  1.72
43. U100C C146U  1.71
44. U102C C120U  1.71
45. U100C C113U  1.7
46. U102A U132C  1.69
47. U102C U119C  1.69
48. U102C A107G  1.67
49. U102C C128U  1.67
50. C101U G139U  1.64
51. U100C A117U  1.63
52. U102C C113A  1.63
53. U102C G122U  1.63
54. U102C G114U  1.62
55. U102C A117G  1.6
56. U102C U104G  1.6
57. U102C C118U  1.59
58. U102C U143G  1.59
59. C103A A129G  1.59
60. U100A A121G  1.58
61. U102A G114A  1.57
62. C101U U130C  1.54
63. U102C U112C  1.53
64. U102A G125A  1.51
65. U100C A117G  1.49
66. U100C C111U  1.48
67. U102C A140U  1.48
68. U102C C113U  1.48
69. U102C C131A  1.48
70. U102C A140G  1.45
71. U102C U119A  1.45
72. U102A A121U  1.44
73. U102C U112A  1.44
74. U100C U108A  1.42
75. U102C A138G  1.42
76. U102A C103U  1.41
77. U100C U109C  1.37
78. C101U G114A  1.37
79. C101U U108C  1.37
80. U102A A117U  1.37
81. C101A A138G  1.36
82. C101A U115A  1.36
83. U102C A136G  1.34
84. U102C U132A  1.34
85. U100C A124G  1.32
86. U100C A117C  1.31
87. U100G A107G  1.31
88. U102A A117G  1.31
89. U102C U109A  1.31
90. U100A A124C  1.28
91. U100G A138G  1.27
92. U100A A136G  1.25
93. U102A U143C  1.25
94. U102C U130C  1.24
95. U102C G125U  1.23
96. U102C A129U  1.22
97. U100C A121G  1.21
98. U102C G114A  1.21
99. U100A C111A  1.19
100. U102C G106A  1.19
101. U100A A138G  1.18
102. U100G U104A  1.17
103. U102C G144C  1.17
104. C99U U115C  1.15
105. U100A C145U  1.15
106. U100C U143A  1.15
107. U102C G144A  1.15
108. U102C U112G  1.15
109. C99U A138G  1.14
110. U102A U108C  1.14
111. U100A U134C  1.12
112. U102C A124G  1.11
113. U100A U112C  1.09
114. U102A G105U  1.09
115. U102C U143C  1.09
116. U102A A124G  1.08
117. U102A G127A  1.08
118. U102A U143A  1.08
119. U102C C113G  1.08
120. U100C G144A  1.07
121. U102C A117U  1.07
122. U102A U134A  1.06
123. C99A U143C  1.03
124. C99U C145A  1.03
125. U100A G126A  1.03
126. U100C U130G  1.02
127. U100A A117U  1.01
128. U100G A142G  1.01
129. C99U C101U  1
130. U100A A142C  1
131. U100A C118U  0.98
132. U100A U108A  0.97
133. U102C U104C  0.95
134. U100A U112A  0.91
135. C99U A129G  0.89
136. U100A A138U  0.89
137. U100A A124U  0.88
138. U102G A129G  0.88
139. U100A A107G  0.87
140. U100G G137A  0.77
141. C99G  0.76
142. U100A A140G  0.76
143. U100A U109A  0.76
144. C99U A138U  0.74
145. U100A A142U  0.74
146. U100A U115A  0.72
147. C99U A140G  0.71
148. C99U U108C  0.71
149. U100A U119A  0.71
150. C99G U112A  0.69
151. C99U U130C  0.69
152. U100A A117G  0.61
153. U100G A136G  0.59
154. U102G A121G  0.59
155. C99U  0.57
156. U100A A140U  0.57
157. C99U A124U  0.42
158. U102C A107U  0.42
159. C99U C113U  0.41
160. C99U A117G  0.4
161. U102C C128A  0.39
162. C99U C133U  0.34
163. C99U U115A  0.33
164. C99U A124G  0.32
165. U100A G139U  0.31
166. U100A U132A  0.31
167. C101U U102G  0.3
